According to PMC2873993, “Comparative Therapeutic Effects of Velaglucerase Alfa and Imiglucerase in a Gaucher Disease Mouse Model” (PLoS ONE, 2010):

Assays:
[1] = GCase activity assay with 4MU-Glc substrate; type: biochemical; conditions: for GCase activity, 4MU-Glc: mean ± SE; for GCase activity, 4MU-Glc / Km: n = 6
Procedure: (§1) Vela and Imig were compared for kinetic properties as described. Briefly, the standard GCase activity assay contained final concentrations of 50 mM citrate/phosphate, pH 5.5, 0.25% TC, 0.25% TX, and 4 mM 4MU-Glc in 200 µl. The reactions were stopped after incubation (30–60 min, 37°C) using 0.9 M ethylenediamine, pH 11.0 (100 µl). Standard curves for 4-MU fluorescence yield were generated for each assay with Ex/Em 460/515 nm (Molecular Dynamics SpectraMax GeminXS spectrofluorometer). […] For the reversible competitive inhibitors, Ki was calculated from IC50 = Ki (1+ [I]/[Km]). The IC50 or Ki values for various inhibitors (dNM and its derivatives, CBE, CS, IFG, DNPFG) were determined using 4MU-Glc as substrate. Activities with the NBD-GC substrate were as described. Enzyme assays with saposin C (0–500 nM/0.5 µM BPS) and BPS (0–2 µM) were as described, [40]. Saposin C was expressed in E. coli and purified as described. For thermostability assessments, equal amounts of Vela and Imig activities were added to 50 mM citrate/phosphate, pH 7.4, with or without human/mouse serum, and incubated for 0–240 min at 25 or 37°C. The pH optimum profiles were developed using 50 mM citrate/phosphate, pH 4.4–7.2. Protease susceptibilities of the two GCases were evaluated by cathepsin D (1–2 µM) digestion in 25 mM sodium acetate, pH 4.8, 50 mM NaCl, 1.25 mM EDTA, 1.25 mM DTT using 200 ng of Vela or Imig at 37°C for 4 h. All assays were conducted in triplicate and repeated at least twice. The amounts of intact enzyme were determined from density measurements on immunoblots and were compared to the initial amounts. The ratios of intact enzyme with and without cathepsin D were used as indicators of the enzyme's proteolytic susceptibility.

[2] = pH- and thermostability of enzyme activity in buffer or serum; type: physicochemical; conditions: for irreversible loss of activity by 2 h / loss of activity by 4 h: pH 7.4, citrate/phosphate buffer or mouse or human serum, 37 or 25°C
Procedure: as §1

saposin C = molecular target: T1, saposin C (Homo sapiens, UniProt P07602); assay: Activation of GCase by saposin C in detergent-free system; type: biochemical; conditions: for saposin C concentration of maximum activation: in the presence of 0.5 µM BPS; for increase of activity with saposin C: saposin C 0 to 500 nM, detergent-free
T1 construct: Saposin C was expressed in E. coli and purified as described [40]; made in house; host or cells: E. coli
T1 sequence (P07602 311-390 limits assumed): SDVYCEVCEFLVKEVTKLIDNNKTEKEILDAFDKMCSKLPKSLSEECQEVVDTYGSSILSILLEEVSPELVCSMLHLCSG
Procedure: Activation of Vela and Imig by the negatively charged lipid, BPS, and saposin C was determined in a detergent-free system with varying concentrations of either agent. The activities of both enzymes increased by 5- to 6-fold or 15- to 17-fold with saposin C (0 to 500 nM) or BPS (0 to 2 µM), respectively. […] Similarly, in the absence of saposin C, both enzymes reacted maximal activation with 0.5 µM of BPS. No significant differences were found in these responses (p = 0.5875–0.8473).
as §1

cathepsin D = assay: Protease susceptibility to cathepsin D digestion; type: biochemical; conditions: for degradation by cathepsin D after 4 h: cathepsin D 1 µg/ml; for degradation by cathepsin D within 4 h: cathepsin D 2 µg/ml
Procedure: as §1, with “Protease susceptibilities of the two GCases were evaluated by cathepsin D (1–2 µM) digestion in 25 mM sodium acetate, pH 4.8, 50 mM NaCl, 1.25 mM EDTA, 1.25 mM DTT using 200 ng of Vela or Imig at 37°C for 4 h.” left out

[3] = pH optimum profile of GCase activity; type: biochemical; conditions: profile pH 4.4–7.2
Procedure: as §1, with “For thermostability assessments, equal amounts of Vela and Imig activities were added to 50 mM citrate/phosphate, pH 7.4, with or without human/mouse serum, and incubated for 0–240 min at 25 or 37°C. The pH optimum profiles were developed using 50 mM citrate/phosphate, pH 4.4–7.2.” left out, “All assays were conducted in triplicate and repeated at least twice.” left out, “The ratios of intact enzyme with and without cathepsin D were used as indicators of the enzyme's proteolytic susceptibility.” left out

9 V/null mice = assay: Injection-related deaths; type: in vivo, mouse; conditions: 60 U/kg once a week for 8 weeks
Procedure: With additional injections, IgG positivity increased in all dosing groups and several mice died. With the 5 or 15 U/kg/wk doses only a few mice died, whereas with 60 U/kg/wk doses, 9/42 Vela-injected and 20/59 Imig-injected mice died following injections during the 4- to 8-wk period (Table 5). Prior to death, these mice became immobile and their lips/tails became cyanotic. Most mice died within 30 to 60 min post-injection. However, placing treated mice in an oxygen chamber for 20 to 30 min after injection led to the survival of most of the animals. The mice that succumbed were immediately dissected, and sera were analyzed for IgE titers and histology. […] Total serum IgE levels from these mice injected with Vela or Imig were 46.4 to 234.9 ng/ml (n = 3) or 115.8 to 239.6 ng/ml (n = 3), respectively (p = 0.3626). In comparison, saline-injected 9 V/null serum values were 6.8 to 8.8 ng/ml (n = 6) (Fig. 7B).
Mice were anesthetized with isoflurane.

Row | Molecule | GCase activity, 4MU-Glc [1] | Km [1] | t1/2 of GCase activity ([2]; 25°C + h-serum) | t1/2 of GCase activity ([2]; 25°C + m-serum) | t1/2 of GCase activity ([2]; 25°C in CP, pH 7.4) | t1/2 of GCase activity ([2]; 37°C + h-serum) | t1/2 of GCase activity ([2]; 37°C + m-serum) | t1/2 of GCase activity ([2]; 37°C in CP, pH 7.4) | irreversible loss of activity by 2 h [2] | loss of activity by 4 h [2] | saposin C concentration of maximum activation (saposin C) | increase of activity with saposin C (saposin C) | degradation by cathepsin D after 4 h (cathepsin D) | degradation by cathepsin D within 4 h (cathepsin D) | pH of peak activity [3] | Death (%) of total injected mice (9 V/null mice; No-oxygen) | Death, number of mice (9 V/null mice; No-oxygen) | Death (%) of total injected mice (9 V/null mice; Oxygen chamber minimum 20 min) | Death, number of mice (9 V/null mice; Oxygen chamber minimum 20 min) | Death (%) of total injected mice (9 V/null mice; Total number) | further results
1 | velaglucerase alfa (protein, N-linked oligosaccharides with higher α-mannosyl content (predominant number of mannoses is 9)) ARPCIPKSFGYSSVVCVCNATYCDSFDPPTFPALGTFSRYESTRSGRRMELSMGPIQANHTGTGLLLTLQPEQKFQKVKGFGGAMTDAAALNILALSPPAQNLLLKSYFSEEGIGYNIIRVPMASCDFSIRTYTYADTPDDFQLHNFSLPEEDTKLKIPLIHRALQLAQRPVSLLASPWTSPTWLKTNGAVNGKGSLKGQPGDIYHQTWARYFVKFLDAYAEHKLQFWAVTAENEPSAGLLSGYPFQCLGFTPEHQRDFIARDLGPTLANSTHHNVRLLMLDDQRLLLPHWAKVVLTDPEAAKYVHGIAVHWYLDFLAPAKATLGETHRLFPNTMLFASEACVGSKFWEQSVRLGSWDRGMQYSHSIITNLLYHVVGWTDWNLALNPEGGPNWVRNFVDSPIIVDITKDTFYKQPMFYHLGHFSKFIPEGSQRVGLVASQKNDLDAVALMHPDGSAVVVVLNRSSKDVPLTIKDPAVGFLETISPGYSIHTYLWRRQ | 1,030,480±2,692 nmole/h/mg | 1590 ± 200 µM | 2.933 ± 0.0978 h | 3.235 ± 0.102 h | 1.977 ± 0.0318 h | 2.117 ± 0.169 h | 2.31 ± 0.0637 h | 1.82 ± 0.0025 h | > 50% | 70–85% | 200 nM | 5- to 6 fold | 72–76% | completely degraded | 5.4–5.6 | 22.6% | 7 | 18.2% | 2 | 21% | greater activity compared to Imig ([1]; 4MU-Glc and GC substrates): 6–10%; Death, number of mice (9 V/null mice; Total number): 9
2 | imiglucerase (protein, short N-linked oligosaccharide chains with ~3 exposed α-mannosyl residues) ARPCIPKSFGYSSVVCVCNATYCDSFDPPTFPALGTFSRYESTRSGRRMELSMGPIQANHTGTGLLLTLQPEQKFQKVKGFGGAMTDAAALNILALSPPAQNLLLKSYFSEEGIGYNIIRVPMASCDFSIRTYTYADTPDDFQLHNFSLPEEDTKLKIPLIHRALQLAQRPVSLLASPWTSPTWLKTNGAVNGKGSLKGQPGDIYHQTWARYFVKFLDAYAEHKLQFWAVTAENEPSAGLLSGYPFQCLGFTPEHQRDFIARDLGPTLANSTHHNVRLLMLDDQRLLLPHWAKVVLTDPEAAKYVHGIAVHWYLDFLAPAKATLGETHRLFPNTMLFASEACVGSKFWEQSVRLGSWDRGMQYSHSIITNLLYHVVGWTDWNLALNPEGGPNWVRNFVDSPIIVDITKDTFYKQPMFYHLGHFSKFIPEGSQRVGLVASQKNDLDAVALMHPDGSAVVVVLNRSSKDVPLTIKDPAVGFLETISPGYSIHTYLWHRQ | 966,000±8,467 nmole/h/mg | 1650 ± 250 µM | 3.107 ± 0.106 h | 3.587 ± 0.253 h | 2.04 ± 0.129 h | 2.125 ± 0.169 h | 2.455 ± 0.124 h | 1.858 ± 0.0413 h | > 50% | 70–85% | 200 nM | 5- to 6 fold | 72–76% | completely degraded | 5.4–5.6 | 48.4% | 15 | 17.9% | 5 | 34% | Death, number of mice (9 V/null mice; Total number): 20
